Results on 5 molecules are retold here after patent US20200181198A1 (3M INNOVATIVE PROPERTIES, published 2020).

Ends that are not written are not given here.

As usually defined, the Kd is the concentration at which binding is half-saturated.

In assay [1] the target is T1, Recombinant Human Epidermal Growth Factor (EGF) (human, UniProt P01133 971-1023).
T1 construct: Commercial reagent; also called EGF protein
Description: dot blot, peptide spotted on nitrocellulose, EGF in solution, anti-EGF-IgG-HRP detection. The procedure:
SEQ ID NO: 1 (1 microliter of a 10 nM solution in PBS containing 3 wt. % DMSO) and SEQ ID NO: 2 (1 microliter of a 10 nM solution in PBS containing 3 wt. % DMSO) were individually spotted at separate sites on a nitrocellulose membrane (obtained from Thermo Fisher Scientific, Waltham, Mass.) and the membrane was dried in air for about 30 minutes. The membrane was then incubated in 25 mL of blocking buffer (3 wt. % BSA in PBS) for one hour at room temperature. The membrane was washed three times (15 minutes for each wash) with 15 mL portions of fresh PBST. The washed membrane was incubated with EGF protein [10 microliters of a 100 ng/mL solution in blocking buffer (3 wt. % BSA in PBS)] with gentle agitation for one hour. The membrane was again washed three times (15 minutes for each wash) with 15 mL portions of fresh PBST. The washed membrane was incubated with anti-EGF-IgG-HRP [1:5000 dilution in 10 mL of the blocking buffer (3 wt. % BSA in PBS)] for one hour with gentle agitation. Following the incubation, the membrane was washed three times (15 minutes for each wash) with 15 mL portions of fresh PBST. The washed membrane was incubated with 10 mL of the development solution for horseradish peroxidase (TMB-Blotting Substrate Solution, Pierce-Fisher Scientific, Rockford, Ill.) with gentle agitation. The color development was stopped by adding water.

Assay [2] deals with T1, Recombinant Human Epidermal Growth …. Description: dot blot, EGF spotted on nitrocellulose, biotinylated peptide in solution, Streptavidin-HRP detection. The procedure: EGF (1 microliter of a 10 nM solution in PBS was spotted a nitrocellulose membrane (obtained from Thermo Fisher Scientific) and the membrane was dried in air for about 30 minutes. The membrane was then incubated in 15 mL of blocking buffer (3 wt. % BSA in PBS) for one hour at room temperature. The membrane was washed three times (15 minutes for each wash) with 15 mL portions of fresh PBST. The washed membrane was incubated with Biotinylated SEQ ID NO: 1 [10 mL of a 10 ng/mL solution in blocking buffer (3 wt. % BSA in PBS)] with gentle agitation for one hour. The membrane was again washed three times (15 minutes for each wash) with 15 mL portions of fresh PBST. The washed membrane was incubated with Streptavidin-HRP [1:5000 dilution in 10 mL of the blocking buffer (3 wt. % BSA in PBS)] for 30 minutes with gentle agitation. Following the incubation, the membrane was washed three times (15 minutes for each wash) with 15 mL portions of fresh PBST. The washed membrane was incubated with 10 mL of the development solution for horseradish peroxidase (TMB-Blotting Substrate Solution, Pierce-Fisher Scientific) with gentle agitation. The color development was stopped by adding water. A dark spot developed at the application site on the membrane indicating affinity of SEQ ID NO: 1 for EGF.

Assay [3] deals with T2, Recombinant Human Tumor Necrosis Factor-alpha (TNF-alpha) (human, UniProt P01375 77-233).
T2 construct: Commercial reagent; also called TNFα
T2 sequence (P01375 77-233 limits assumed): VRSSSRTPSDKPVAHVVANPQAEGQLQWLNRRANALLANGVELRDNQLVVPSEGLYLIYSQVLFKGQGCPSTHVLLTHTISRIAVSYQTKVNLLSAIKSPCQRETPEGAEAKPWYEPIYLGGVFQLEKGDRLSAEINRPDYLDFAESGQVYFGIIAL
Description: SPR (Biacore 3000, CM5 chip), linker modified peptide immobilized, TNF-alpha as analyte, Test Method A; TNF-alpha as analyte. The procedure: (§1) The following Test Method A was used for determining the binding affinity (KD) of SEQ ID NO: 1 for EGF and TNF-[…] Binding experiments were performed using Biacore 3000 optical biosensors equipped with research-grade CM5 sensor chips (GE Healthcare Bio-Sciences Corporation). The reagents used for the amine-coupling steps [(1-ethyl-3-(3-dimethylaminopropyl)-carbodiimide (EDC); N-hydroxysuccinimide (NHS); and ethanolamine hydrochloride-NaOH (1 M, pH 8.5)] were obtained from GE Healthcare Bio-Sciences Corporation. In order to efficiently immobilize the peptide on the sensor chips, a modified version of SEQ ID NO:1 was prepared by SPPS in which a “CK” amino acid linker sequence was added to the N-terminal end of the SEQ ID NO: 1 peptide (i.e. linker modified version of SEQ ID NO: 1 for immobilization being […]). A standard coupling protocol was employed to immobilize the linker modified version of SEQ ID NO: 1 via the lysine residues. The immobilization was performed at 25° C. using HBS-EP as the running buffer. The CM-dextran surfaces of the sensor chip flow cells were activated by a seven minute injection (20 microliters/minute) of freshly prepared 1:1 50 mM NHS: 200 mM EDC. A solution of linker modified SEQ ID NO: 1 in acetic acid (20 mM, pH 5.5) was injected to target 200 response units (RU). […]
On the technique in general: SPR reads the build-up and loss of mass on a sensor chip optically.

For assay [4], the target named is T1, Recombinant Human Epidermal Growth …. The assay is described as follows: SPR (Biacore 3000, CM5 chip), linker modified peptide immobilized, EGF as analyte, Test Method A; EGF as analyte. The procedure: as §1
Assay [5] has the same target. Description: SPR (Biacore 3000, CM5 chip), linker modified peptide immobilized by amine coupling, EGF analyte 62.5-1000 nM, 25 C, 1:1 Langmuir global fit. The procedure:
as §1

Assay [6] addresses T2, Recombinant Human Tumor Necrosis …. The assay is described as follows: SPR (Biacore 3000, CM5 chip), linker modified peptide immobilized, TNF-alpha as analyte, 25 C. As to the method:
as §1

T1 sequence (P01133 971-1023 limits assumed): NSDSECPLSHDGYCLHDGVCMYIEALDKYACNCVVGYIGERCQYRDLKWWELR

B1: SEQ ID NO: 2 peptide (KNVNWWSHWWHATD) (peptide)
peptide: Ac-KNVNWWSHWWHATD-NH2
notes: Chemically synthesized (SPPS, GenScript)
Consider B1, for which the binding result in assay [1] is given as “binds”.

On to YVSPGMKNVNWWSHWWHATD-NH2 (not fully specified (N-terminus); also: biotinylated, site not given here) [Biotinylated SEQ ID NO: 1], for which, in assay [2], the binding result is recorded as “binds”.

B2: linker modified version of SEQ ID NO: 2 (CKNVNWWSHWWHATD) (peptide)
peptide: CKNVNWWSHWWHATD
modifications: not fully specified (N-terminus, C-terminus); also: immobilized on CM5 chip by amine coupling or conjugated to iodoacetyl magnetic beads via linker cysteine
B2: the figures for the dissociation constant Kd in assay [3] and in assay [4] were 2450 µM and 2.6 µM, respectively.

B3: linker modified version of SEQ ID NO: 1 (CKYVSPGMKNVNWWSHWWHATD) (peptide)
peptide: CKYVSPGMKNVNWWSHWWHATD
modifications: not fully specified (N-terminus, C-terminus); also: immobilized on CM5 chip by amine coupling via lysine residues
Take B3: the Kd in assay [5] turned out to be 0.706 µM. Further, the binding result in assay [6] is given as “no binding”.

B4: SEQ ID NO: 1 peptide (YVSPGMKNVNWWSHWWHATD) (peptide)
peptide: Ac-YVSPGMKNVNWWSHWWHATD-NH2
notes: as for B1
With B4, the binding result in assay [1] is recorded as “binds”.
